Blank lines part the entries; values can stand above or below the binder they belong to. Non-standard residues stand in square brackets, D forms with d. No end group written: not given here. *: point of attachment. Phe(F5) = N[C@@H](Cc1c(F)c(F)c(F)c(F)c1F)C(=O)O; Desaminotyrosyl = O=C(CCc1ccc(O)cc1)*; NMeY = CN[C@@H](Cc1ccc(O)cc1)C(=O)O; Nle = CCCC[C@H](N)C(=O)O; Orn = NCCC[C@H](N)C(=O)O; Abu = CC[C@H](N)C(=O)O; Aoc = NCCCCCCCC(=O)O; Ava = NCCCCC(=O)O; GABA = NCCCC(=O)O
Assays:
[1] = target: T1, GHRH receptor (membrane receptors of human anterior pituitary cells) (human, UniProt Q02643 23-423); assay: competition with 125I-JV-1-42, human pituitary membranes
T1 construct: whole, on cells; Native receptor in a membrane fraction of purchased normal human pituitaries, not intact cells; also called hGHRH receptor; human pituitary membrane homogenates
T1 sequence (looked up): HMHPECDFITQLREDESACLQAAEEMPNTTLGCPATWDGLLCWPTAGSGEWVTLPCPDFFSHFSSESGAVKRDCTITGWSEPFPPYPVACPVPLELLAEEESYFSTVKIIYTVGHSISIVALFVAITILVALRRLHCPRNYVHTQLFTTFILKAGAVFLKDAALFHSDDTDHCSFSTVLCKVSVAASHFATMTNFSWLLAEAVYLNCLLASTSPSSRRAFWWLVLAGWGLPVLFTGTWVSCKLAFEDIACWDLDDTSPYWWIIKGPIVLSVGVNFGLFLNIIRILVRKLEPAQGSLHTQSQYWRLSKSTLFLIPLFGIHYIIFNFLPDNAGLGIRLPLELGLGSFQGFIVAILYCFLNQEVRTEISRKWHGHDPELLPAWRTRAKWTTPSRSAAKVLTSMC
Source text: Normal human pituitaries were purchased from the National Hormone and Peptide Program (A. F. Parlow, Los Angeles, County Harbor-UCLA Medical Center, Torrance, Calif.).

[2] = target: T1, GHRH receptor (membrane receptors of …); assay: competition with 125I-[His1,Nle27]hGHRH(1-32)NH2, human pituitary membranes

IC50 [1]: 0.83 nM | Relative affinity (Binding potency) vs JI-38 [1]: 5.24 JI-38 = 1 | IC50 [2]: 1.28 nM | Relative affinity (Binding potency) compared to JI-38 [2]: 2.14 JI-38 = 1 | Relative affinity (Binding potency) compared to hGHRH(1-29) [2]: 5.98 hGHRH(1-29)NH2 = 1
B1: P-27410 [N-Me-Tyr^1, D-Ala^2, Thr^8, Orn^12, Abu^15, Orn^21, Nle^27, Asp^28]hGHRH(1-29)NH-CH3 (peptide)
peptide: [NMeY][dA]DAIFTTSYR[Orn]VL[Abu]QLSAR[Orn]LLQDI[Nle]DR-NHMe
notes: also called MR-410; Peptide 27410

IC50 [1]: 1.87 nM | Relative affinity (Binding potency) vs JI-38 [1]: 2.32 JI-38 = 1
B2: P-21303 [N-Me-Tyr^1, D-Ala^2, Orn^12, Abu^15, Orn^21, Nle^27, Asp^28, Amc^30]hGHRH(1-30)NH2 (peptide)
peptide: [NMeY][dA]DAIFTNSYR[Orn]VL[Abu]QLSAR[Orn]LLQDI[Nle]DR[Aoc]-NH2
modifications: N-terminus assumed
SMILES: CCCC[C@H](NC(=O)[C@@H](NC(=O)[C@H](CC(=O)O)NC(=O)[C@H](CCC(N)=O)NC(=O)[C@H](CC(C)C)NC(=O)[C@H](CC(C)C)NC(=O)[C@H](CCCN)NC(=O)[C@H](CCCNC(=N)N)NC(=O)[C@H](C)NC(=O)[C@H](CO)NC(=O)[C@H](CC(C)C)NC(=O)[C@H](CCC(N)=O)NC(=O)[C@H](CC)NC(=O)[C@H](CC(C)C)NC(=O)[C@@H](NC(=O)[C@H](CCCN)NC(=O)[C@H](CCCNC(=N)N)NC(=O)[C@H](Cc1ccc(O)cc1)NC(=O)[C@H](CO)NC(=O)[C@H](CC(N)=O)NC(=O)[C@@H](NC(=O)[C@H](Cc1ccccc1)NC(=O)[C@@H](NC(=O)[C@H](C)NC(=O)[C@H](CC(=O)O)NC(=O)[C@@H](C)NC(=O)[C@H](Cc1ccc(O)cc1)NC)[C@@H](C)CC)[C@@H](C)O)C(C)C)[C@@H](C)CC)C(=O)N[C@@H](CC(=O)O)C(=O)N[C@@H](CCCNC(=N)N)C(=O)NCCCCCCCC(N)=O
notes: also called Peptide 21303

IC50 [1]: 0.71 nM | Relative affinity (Binding potency) vs JI-38 [1]: 6.12 JI-38 = 1 | IC50 [2]: 0.98 nM | Relative affinity (Binding potency) compared to JI-38 [2]: 2.8 JI-38 = 1 | Relative affinity (Binding potency) compared to hGHRH(1-29) [2]: 7.81 hGHRH(1-29)NH2 = 1
B3: P-22326 [N-Me-Tyr^1, D-Ala^2, Gln^8, Orn^12, Abu^15, Orn^21, Nle^27, Asp^28, Apa^30]hGHRH(1-30)NH2 (peptide)
peptide: [NMeY][dA]DAIFTQSYR[Orn]VL[Abu]QLSAR[Orn]LLQDI[Nle]DR[Ava]-NH2
modifications: N-terminus assumed
SMILES: CCCC[C@H](NC(=O)[C@@H](NC(=O)[C@H](CC(=O)O)NC(=O)[C@H](CCC(N)=O)NC(=O)[C@H](CC(C)C)NC(=O)[C@H](CC(C)C)NC(=O)[C@H](CCCN)NC(=O)[C@H](CCCNC(=N)N)NC(=O)[C@H](C)NC(=O)[C@H](CO)NC(=O)[C@H](CC(C)C)NC(=O)[C@H](CCC(N)=O)NC(=O)[C@H](CC)NC(=O)[C@H](CC(C)C)NC(=O)[C@@H](NC(=O)[C@H](CCCN)NC(=O)[C@H](CCCNC(=N)N)NC(=O)[C@H](Cc1ccc(O)cc1)NC(=O)[C@H](CO)NC(=O)[C@H](CCC(N)=O)NC(=O)[C@@H](NC(=O)[C@H](Cc1ccccc1)NC(=O)[C@@H](NC(=O)[C@H](C)NC(=O)[C@H](CC(=O)O)NC(=O)[C@@H](C)NC(=O)[C@H](Cc1ccc(O)cc1)NC)[C@@H](C)CC)[C@@H](C)O)C(C)C)[C@@H](C)CC)C(=O)N[C@@H](CC(=O)O)C(=O)N[C@@H](CCCNC(=N)N)C(=O)NCCCCC(N)=O
notes: also called MR-326; Peptide 22326

IC50 [1]: 1.56 nM | Relative affinity (Binding potency) vs JI-38 [1]: 2.79 JI-38 = 1
B4: P-27414 [N-Me-Tyr^1, D-Ala^2, Fpa5^6, Orn^12, Abu^15, Orn^21, Nle^27, Gab^30]hGHRH(1-30)NH-CH3 (peptide)
peptide: [NMeY][dA]DAI[Phe(F5)]TNSYR[Orn]VL[Abu]QLSAR[Orn]LLQDI[Nle]SR[GABA]-NHMe
notes: also called Peptide 27414

IC50 [1]: 1.07 nM | Relative affinity (Binding potency) vs JI-38 [1]: 4.07 JI-38 = 1
B5: P-25501 [N-Me-Tyr^1, D-Ala^2, Orn^12, Abu^15, Orn^21, Nle^27, Gab^30]hGHRH(1-30)NH2 (peptide)
peptide: [NMeY][dA]DAIFTNSYR[Orn]VL[Abu]QLSAR[Orn]LLQDI[Nle]SR[GABA]-NH2
modifications: N-terminus assumed
SMILES: CCCC[C@H](NC(=O)[C@@H](NC(=O)[C@H](CC(=O)O)NC(=O)[C@H](CCC(N)=O)NC(=O)[C@H](CC(C)C)NC(=O)[C@H](CC(C)C)NC(=O)[C@H](CCCN)NC(=O)[C@H](CCCNC(=N)N)NC(=O)[C@H](C)NC(=O)[C@H](CO)NC(=O)[C@H](CC(C)C)NC(=O)[C@H](CCC(N)=O)NC(=O)[C@H](CC)NC(=O)[C@H](CC(C)C)NC(=O)[C@@H](NC(=O)[C@H](CCCN)NC(=O)[C@H](CCCNC(=N)N)NC(=O)[C@H](Cc1ccc(O)cc1)NC(=O)[C@H](CO)NC(=O)[C@H](CC(N)=O)NC(=O)[C@@H](NC(=O)[C@H](Cc1ccccc1)NC(=O)[C@@H](NC(=O)[C@H](C)NC(=O)[C@H](CC(=O)O)NC(=O)[C@@H](C)NC(=O)[C@H](Cc1ccc(O)cc1)NC)[C@@H](C)CC)[C@@H](C)O)C(C)C)[C@@H](C)CC)C(=O)N[C@@H](CO)C(=O)N[C@@H](CCCNC(=N)N)C(=O)NCCCC(N)=O
notes: also called Peptide 25501

IC50 [1]: 3.61 nM | Relative affinity (Binding potency) vs JI-38 [1]: 1.2 JI-38 = 1
B6: P-21300 [Dat^1, D-Ala^2, Orn^12, Abu^15, Orn^21, Nle^27, Asp^28, Amc^30]hGHRH(1-30)NH2 (peptide)
peptide: [Desaminotyrosyl][dA]DAIFTNSYR[Orn]VL[Abu]QLSAR[Orn]LLQDI[Nle]DR[Aoc]-NH2
SMILES: CCCC[C@H](NC(=O)[C@@H](NC(=O)[C@H](CC(=O)O)NC(=O)[C@H](CCC(N)=O)NC(=O)[C@H](CC(C)C)NC(=O)[C@H](CC(C)C)NC(=O)[C@H](CCCN)NC(=O)[C@H](CCCNC(=N)N)NC(=O)[C@H](C)NC(=O)[C@H](CO)NC(=O)[C@H](CC(C)C)NC(=O)[C@H](CCC(N)=O)NC(=O)[C@H](CC)NC(=O)[C@H](CC(C)C)NC(=O)[C@@H](NC(=O)[C@H](CCCN)NC(=O)[C@H](CCCNC(=N)N)NC(=O)[C@H](Cc1ccc(O)cc1)NC(=O)[C@H](CO)NC(=O)[C@H](CC(N)=O)NC(=O)[C@@H](NC(=O)[C@H](Cc1ccccc1)NC(=O)[C@@H](NC(=O)[C@H](C)NC(=O)[C@H](CC(=O)O)NC(=O)[C@@H](C)NC(=O)CCc1ccc(O)cc1)[C@@H](C)CC)[C@@H](C)O)C(C)C)[C@@H](C)CC)C(=O)N[C@@H](CC(=O)O)C(=O)N[C@@H](CCCNC(=N)N)C(=O)NCCCCCCCC(N)=O
notes: also called Peptide 21300

Source: patent US20140179604A1 (U S A REPRESENTED BY THE DEPARTMENT OF VETERANS AFFAIRS, published 2014)
